According to FireProtDB (doi:10.1007/s00792-015-0748-z):

Conditions: Pyrococcus furiosus (strain ATCC 43587 / DSM 3638 / JCM 8422 / Vc1), 60 °C, GdnHCl, Fluorescence, Tris, NaCl, transition: 2, reversible: yes, whole UniProt chain shown

B1: L-asparaginase wild type, Q8TZE8 (protein)
chain: MKILLIGMGGTIASVKGENGYEASLSVKEVLDIAGIKDCEDCDFLDLKNVDSTLIQPEDWVDLAETLYKNVKKYDGIIVTHGTDTLAYTSSMISFMLRNPPIPIVFTGSMIPATEENSDAPLNLQTAIKFATSGIRGVYVAFNGKVMLGVRTSKVRTMSRDAFESINYPIIAELRGEDLVVNFIPKFNNGEVTLDLRHDPKVLVIKLIPGLSGDIFRAAVELGYRGIVIEGYGAGGIPYRGSDLLQTIEELSKEIPIVMTTQAMYDGVDLTRYKVGRLALRAGVIPAGDMTKEATVTKLMWILGHTNNVEEIKVLMRKNLVGELRD
- denaturant m value (pH 8): 5.12 kcal/mol/M
- denaturant midpoint (higher = more stable) (pH 8): 3.04 M
- unfolding free energy (pH 8): 15.7 kcal/mol
- denaturant m value (pH 9): 0.9 kcal/mol/M
- denaturant midpoint (higher = more stable) (pH 9): 1.99 M
- unfolding free energy (pH 9): 1.6 kcal/mol
